Measurements as given in publication doi:10.1101/2024.01.10.575016, “Cell Cycle Regulation has Shaped Budding Yeast Replication Origin Structure and Function” (bioRxiv, 2024).

Tests used:
Mcm3 = target: T1, Mcm3 (budding yeast, UniProt P24279 1-971); test: cryo-EM structure; MCM loading reaction on nucleosome-flanked ARS1 DNA (15 nM) with CDK-phosphorylated Orc6-4A ORC (40 nM) and MCM-Cdt1 (80 nM), 2.2 mM ATP, 30°C 30 min; SH and DH particles from the same data; conditions: both partners purified
T1 construct: Mcm3, budding yeast
T1 sequence (P24279 whole entry): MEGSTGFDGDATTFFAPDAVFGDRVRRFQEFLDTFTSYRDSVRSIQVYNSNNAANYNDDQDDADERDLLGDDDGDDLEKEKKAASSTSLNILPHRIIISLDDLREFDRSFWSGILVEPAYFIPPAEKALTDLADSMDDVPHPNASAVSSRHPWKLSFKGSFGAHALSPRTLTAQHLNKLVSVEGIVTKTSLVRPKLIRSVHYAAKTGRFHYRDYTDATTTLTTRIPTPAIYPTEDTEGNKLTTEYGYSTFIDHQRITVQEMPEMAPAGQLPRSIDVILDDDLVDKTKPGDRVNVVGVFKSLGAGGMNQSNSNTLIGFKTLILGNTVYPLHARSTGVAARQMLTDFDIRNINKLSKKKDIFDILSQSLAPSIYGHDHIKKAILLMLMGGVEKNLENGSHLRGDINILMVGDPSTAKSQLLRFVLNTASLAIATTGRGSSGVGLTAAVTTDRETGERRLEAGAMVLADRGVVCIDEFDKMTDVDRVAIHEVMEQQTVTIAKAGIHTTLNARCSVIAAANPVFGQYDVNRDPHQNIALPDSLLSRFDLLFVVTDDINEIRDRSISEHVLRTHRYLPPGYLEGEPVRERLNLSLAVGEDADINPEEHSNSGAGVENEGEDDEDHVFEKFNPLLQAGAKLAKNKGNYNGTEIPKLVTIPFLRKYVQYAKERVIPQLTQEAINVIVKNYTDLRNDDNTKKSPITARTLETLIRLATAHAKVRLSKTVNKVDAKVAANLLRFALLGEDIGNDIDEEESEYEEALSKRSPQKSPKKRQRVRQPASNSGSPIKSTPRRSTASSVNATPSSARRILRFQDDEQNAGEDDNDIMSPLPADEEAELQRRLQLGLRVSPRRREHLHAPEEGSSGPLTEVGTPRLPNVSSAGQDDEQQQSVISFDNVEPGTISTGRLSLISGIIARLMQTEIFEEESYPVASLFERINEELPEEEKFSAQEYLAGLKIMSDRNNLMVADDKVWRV

Mcm4 = target: T2, Mcm4 (budding yeast, UniProt P30665 1-933); test: as above; conditions: both partners purified
T2 construct: Mcm4, budding yeast
T2 sequence: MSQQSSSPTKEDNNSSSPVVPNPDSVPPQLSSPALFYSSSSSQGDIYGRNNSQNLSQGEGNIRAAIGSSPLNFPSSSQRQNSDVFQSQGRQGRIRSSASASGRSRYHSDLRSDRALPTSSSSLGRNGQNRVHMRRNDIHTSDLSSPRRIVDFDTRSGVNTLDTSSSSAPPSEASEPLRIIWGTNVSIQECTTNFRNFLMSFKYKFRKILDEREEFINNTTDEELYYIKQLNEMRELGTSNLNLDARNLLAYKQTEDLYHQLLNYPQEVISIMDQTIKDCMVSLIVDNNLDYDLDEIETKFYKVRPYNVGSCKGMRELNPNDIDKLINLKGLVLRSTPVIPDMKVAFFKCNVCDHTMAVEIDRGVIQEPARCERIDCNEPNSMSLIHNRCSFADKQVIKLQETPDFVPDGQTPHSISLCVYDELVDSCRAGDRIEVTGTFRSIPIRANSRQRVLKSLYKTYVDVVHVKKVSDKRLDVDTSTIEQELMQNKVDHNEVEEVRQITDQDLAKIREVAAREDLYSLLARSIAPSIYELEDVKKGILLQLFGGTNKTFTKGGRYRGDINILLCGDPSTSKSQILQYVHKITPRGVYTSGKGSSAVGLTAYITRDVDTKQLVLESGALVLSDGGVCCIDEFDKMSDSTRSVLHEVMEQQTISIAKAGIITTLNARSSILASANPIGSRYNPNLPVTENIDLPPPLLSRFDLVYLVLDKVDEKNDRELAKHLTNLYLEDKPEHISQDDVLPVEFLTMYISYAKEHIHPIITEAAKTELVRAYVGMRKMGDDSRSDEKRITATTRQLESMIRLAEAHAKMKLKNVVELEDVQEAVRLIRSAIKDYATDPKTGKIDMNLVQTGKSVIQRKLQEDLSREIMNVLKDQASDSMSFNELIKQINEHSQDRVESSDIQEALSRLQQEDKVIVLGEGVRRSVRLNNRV

binding result (Mcm3): binds
binding result (Mcm4): binds
B1: Mcm7 (natural protein, budding yeast)
chain: MSAALPSIQLPVDYNNLFNEITDFLVTFKQDTLSSDATRNENEDENLDAENIEQHLLEKGPKYMAMLQKVANRELNSVIIDLDDILQYQNEKFLQGTQADDLVSAIQQNANHFTELFCRAIDNNMPLPTKEIDYKDDVLDVILNQRRLRNERMLSDRTNEIRSENLMDTTMDPPSSMNDALREVVEDETELFPPNLTRRYFLYFKPLSQNCARRYRKKAISSKPLSVRQIKGDFLGQLITVRGIITRVSDVKPAVEVIAYTCDQCGYEVFQEVNSRTFTPLSECTSEECSQNQTKGQLFMSTRASKFSAFQECKIQELSQQVPVGHIPRSLNIHVNGTLVRSLSPGDIVDVTGIFLPAPYTGFKALKAGLLTETYLEAQFVRQHKKKFASFSLTSDVEERVMELITSGDVYNRLAKSIAPEIYGNLDVKKALLLLLVGGVDKRVGDGMKIRGDINVCLMGDPGVAKSQLLKAICKISPRGVYTTGKGSSGVGLTAAVMKDPVTDEMILEGGALVLADNGICCIDEFDKMDESDRTAIHEVMEQQTISISKAGINTTLNARTSILAAANPLYGRYNPRLSPLDNINLPAALLSRFDILFLMLDIPSRDDDEKLAEHVTYVHMHNKQPDLDFTPVEPSKMREYIAYAKTKRPVMSEAVNDYVVQAYIRLRQDSKREMDSKFSFGQATPRTLLGIIRLSQALAKLRLADMVDIDDVEEALRLVRVSKESLYQETNKSKEDESPTTKIFTIIKKMLQETGKNTLSYENIVKTVRLRGFTMLQLSNCIQEYSYLNVWHLINEGNTLKFVDDGTMDTDQEDSLVSTPKLAPQTTASANVSAQDSDIDLQDA
notes: Mcm7, budding yeast
